Data from article doi:10.1101/600387.

Biological target: Sulfolobus acidocaldarius R2-like ligand-binding oxidase (Sulfolobus acidocaldarius)
Test: crystal structure

stoichiometry N: 2
Substance: Sulfolobus acidocaldarius R2-like ligand-binding oxidase (enzyme)
